Data on two molecules can be found in PMC3469519 (Molecular Biology of the Cell, 2012).

Where two headings read alike, the source gives them in different places.

What all share (experiment): pull-down
In test [1] the target is T1, full-length 6His-Bnr1 (S. cerevisiae, UniProt P40450 1-1375).
In test [2] the target is T1, full-length 6His-Bnr1. This is another data set of the same source.
Another test has as its target T2, 6His-Bnr1-758 (Bnr1-N) (S. cerevisiae, UniProt P40450 1-758).
T2 sequence (looked up): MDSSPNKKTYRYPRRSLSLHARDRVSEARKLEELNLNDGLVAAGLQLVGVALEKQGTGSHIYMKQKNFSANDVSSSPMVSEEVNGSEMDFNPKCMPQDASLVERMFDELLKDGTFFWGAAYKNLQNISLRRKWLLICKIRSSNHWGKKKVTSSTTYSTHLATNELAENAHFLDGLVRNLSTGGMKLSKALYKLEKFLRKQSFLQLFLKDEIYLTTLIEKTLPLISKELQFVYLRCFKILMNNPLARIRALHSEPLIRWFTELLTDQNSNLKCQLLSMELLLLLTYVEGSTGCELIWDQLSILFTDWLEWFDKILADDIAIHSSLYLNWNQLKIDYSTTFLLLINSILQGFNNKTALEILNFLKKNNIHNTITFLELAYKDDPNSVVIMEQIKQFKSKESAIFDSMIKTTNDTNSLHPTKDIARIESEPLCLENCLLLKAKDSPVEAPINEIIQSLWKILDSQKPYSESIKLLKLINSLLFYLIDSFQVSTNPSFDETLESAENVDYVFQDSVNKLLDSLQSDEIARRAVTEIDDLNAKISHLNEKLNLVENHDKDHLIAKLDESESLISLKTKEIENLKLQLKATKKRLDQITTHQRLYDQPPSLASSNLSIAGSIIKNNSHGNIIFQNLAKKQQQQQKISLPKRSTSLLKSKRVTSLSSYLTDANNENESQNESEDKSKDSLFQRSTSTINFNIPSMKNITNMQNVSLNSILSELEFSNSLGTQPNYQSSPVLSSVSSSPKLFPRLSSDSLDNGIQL

B1: full-length GST-Gin4 (enzyme, S. cerevisiae, UniProt Q12263 1-1142, looked up)
chain: MAINGNSIPAIKDNTIGPWKLGETLGLGSTGKVQLARNGSTGQEAAVKVISKAVFNTGNVSGTSIVGSTTPDALPYGIEREIIIMKLLNHPNVLRLYDVWETNTDLYLVLEYAEKGELFNLLVERGPLPEHEAIRFFRQIIIGVSYCHALGIVHRDLKPENLLLDHKYNIKIADFGMAALETEGKLLETSCGSPHYAAPEIVSGIPYQGFASDVWSCGVILFALLTGRLPFDEEDGNIRTLLLKVQKGEFEMPSDDEISREAQDLIRKILTVDPERRIKTRDILKHPLLQKYPSIRDSKSIRGLPREDTYLTPLSESNSSIDATILQNLVILWHGRDPEGIKEKLREPGANAEKTLYALLYRFKCDTQKELIKQQQVKKRQSISSVSVSPSKKVSTTPQRRRNRESLISVTSSRKKPISFNKFTASSASSSNLTTPGSSKRLSKNFSSKKKLSTIVNQSSPTPASRNKRASVINVEKNQKRASIFSTTKKNKRSSRSIKRMSLIPSMKRESVTTKLMSTYAKLAEDDDWEYIEKETKRTSSNFATLIDEIFEYEKYEQIRKEKEELERKVREAKAREELERRRRKQEEKERARKLLEKEDLKRKQEELKKQIEIDISDLEQELSKHKEEKLDGNIRSISAPMENEEKNINHLEVDIDNILRRRNFSLQTRPVSRLDPGIMFSSPTEEVSPVEPKRTENERLTTEKKILETIRRSKFLGSSFNIDKELKLSKMEYPSIIAPQRLSEERVVSDSNDGYESLILPKDGNGVSQLKDSTATTAPVSDGRLRKISEIRVPQFTRKSRHFSESNKRLSVLSMYSTKESFTNLVDILKNGNLDVNNQQSQRIPTPRSADDSEFLFETVNEEAEYTGNSSNDERLYDVGDSTIKDKSALKLNFADRFNGSNEAKQTDNLHLPILPPLNGDNELRKQNSQEGDQAHPKIKSMIPESGSSSHTEKEEENEEKEEKKPEQHKQEEDQEKREKVVDDMEPPLNKSVQKIREKNAGSQAKDHSKDHLKEHKQDKNTAIGNGSFFRKFSKSSDKTMELYAKISAKQLFNGLEKLLRGWTQYGLKNIKSHPNNLTLTGKLSSDNIFSLRSTLFEVNIYPRGKMSVVQFKKVSGSFKAVKKLVNEVENVLNKEGVLQK
In the case of B1, in the test with full-length 6His-Bnr1 [1], the binding result is reported as “binds”.

B2: pCAL-n-FLAG-Gin4-C (amino acids 540–1142) (domain or fragment, S. cerevisiae, UniProt Q12263 540-1142, looked up)
chain: SSNFATLIDEIFEYEKYEQIRKEKEELERKVREAKAREELERRRRKQEEKERARKLLEKEDLKRKQEELKKQIEIDISDLEQELSKHKEEKLDGNIRSISAPMENEEKNINHLEVDIDNILRRRNFSLQTRPVSRLDPGIMFSSPTEEVSPVEPKRTENERLTTEKKILETIRRSKFLGSSFNIDKELKLSKMEYPSIIAPQRLSEERVVSDSNDGYESLILPKDGNGVSQLKDSTATTAPVSDGRLRKISEIRVPQFTRKSRHFSESNKRLSVLSMYSTKESFTNLVDILKNGNLDVNNQQSQRIPTPRSADDSEFLFETVNEEAEYTGNSSNDERLYDVGDSTIKDKSALKLNFADRFNGSNEAKQTDNLHLPILPPLNGDNELRKQNSQEGDQAHPKIKSMIPESGSSSHTEKEEENEEKEEKKPEQHKQEEDQEKREKVVDDMEPPLNKSVQKIREKNAGSQAKDHSKDHLKEHKQDKNTAIGNGSFFRKFSKSSDKTMELYAKISAKQLFNGLEKLLRGWTQYGLKNIKSHPNNLTLTGKLSSDNIFSLRSTLFEVNIYPRGKMSVVQFKKVSGSFKAVKKLVNEVENVLNKEGVLQK
As to B2, the binding result in the test with full-length 6His-Bnr1 [2] and with 6His-Bnr1-758 (Bnr1-N) was “binds” each time.
